A short description of series [1]: Bulk aggregation study (stirred aqueous solutions, aggregation visually observed). In kind it is physicochemical. The following applies: aqueous solution 0.1 mg/ml insulin, stirred at 1555 rpm until aggregation visually observed or up to two weeks. Here is the method: (§1) Bulk aggregation studies with free insulin compared with glycosylated insulins were carried out by two methods. In a bulk aggregation study, various aqueous insulin and glycosylated insulin solutions containing 0.1 mg/ml of insulin were stirred at 1555 rpm until aggregation was visually observed or up to two weeks. In a second test, solutions containing the same insulin concentration were deposited on polyurethane (Biomer) and microscopically observed for aggregation.

The test system of another series is blood sugar level. Description: Blood sugar depression (BSD) test. In kind it is in vivo. The following applies: rats fasted twenty hours, 1 mg/kg intraperitoneal, 20 minutes after injection; control (baseline) 64.62 ± 0.61. Here is the method: The bioactivity of the glycosated insulins described herein was determined by a blood sugar depression test and compared to commercial insulin preparations and controls. In this test, replicates of standard laboratory rats were fasted for twenty hours. After measuring baseline blood sugar levels, a 1 mg/kg dose of either free or glycosylated insulin was injected via an intraperitoneal route. The blood sugar level in each rat was measured colormetrically 20 minutes after the injection.

Series [2] can be described thus: Aggregation test on polyurethane (Biomer), microscopically observed. In kind it is physicochemical. The following applies: 0.1 mg/ml insulin solution deposited on polyurethane (Biomer). Here is the method: as §1

As to “p-(α-D-glucopyranosyloxy)-phenyl-thiocarbamoyl Insulin”, the “Time required for aggregation, Bulk” value in series [1] was determined as 2 weeks. The “Blood Sugar Concentration after 20 min. IP. injection (± S.E.M.)” value (“Blood Sugar Concentration” for short) in the series with blood sugar level is 44.67 ± 2.21 mg/dL. Besides, the “Time required for aggregation, Polyurethane” value (“Time required … Polyurethane” below) in series [2] was determined as 8 days.

Consider “p-(α-D-glucopyranosyloxy)-phenyl-N-succinamyl insulin”, for which the “Time required for aggregation, Bulk” value in series [1] was found to be 2 weeks. Moreover, the “Blood Sugar Concentration” value in the series on blood sugar level stood at 40.87 ± 1.32 mg/dL. The “Time required … Polyurethane” value in series [2] amounted to 2 weeks.

Take “p-(α-D-mannopyranosyloxy)-phenyl-N-succinamyl insulin”: the “Time required for aggregation, Bulk” value in series [1] was found to be 2 weeks. The “Blood Sugar Concentration” value in the series with blood sugar level worked out at 44.80 ± 2.37 mg/dL. The “Time required … Polyurethane” value in series [2] turned out to be 2 weeks.

Regarding “insulin [Free Insulin, reference compound]”, the “Time required for aggregation, Bulk” value in series [1] was 2 to 3 days. Moreover, the “Time required … Polyurethane” value in series [2] lay within 1 to 2 days.

On to glucosamidoglutaryl insulin, for which the “Blood Sugar Concentration” value with blood sugar level came out at 45.92 ± 3.30 mg/dL.

Consider Glucosamidosuccinyl insulin, for which, in the series with blood sugar level, the “Blood Sugar Concentration” value is 37.80 ± 1.13 mg/dL.

Take “SIGMA INS (21F-0375): commercial insulin preparation (Sigma) used as comparison”: in the series with blood sugar level, the “Blood Sugar Concentration” value amounted to 32.66 ± 1.10 mg/dL.

Consider “p-α-D-glucopyranosyloxy)-phenyl-N-glutaramyl insulin”, for which the “Blood Sugar Concentration” value with blood sugar level came to 40.40 ± 2.53 mg/dL.

In the case of “p-(α-D-mannopyranosyloxy)-phenyl-N-glutaramyl insulin”, in the series with blood sugar level, the “Blood Sugar Concentration” value was 40.60 ± 0.80 mg/dL.

(Values after patent publication US4478746A, “Glycosylated insulin derivatives” (priority 1984, dated 1984).)
